Reference: publication PMC9400903, “A Versatile Synthetic Affinity Probe Reveals Inhibitory Synapse Ultrastructure and Brain Connectivity**” (Angewandte Chemie (International Ed. in English), 2022)
Where no end group is shown, it is not given here.

T1: eGFP-gephyrin (UniProt Q03555 1-768)
T1 construct: gephyrin; source: COS-7 cells, expressed, cells fixed; 'mammalian cells' for the test of SyliteCy3
T1 sequence (looked up): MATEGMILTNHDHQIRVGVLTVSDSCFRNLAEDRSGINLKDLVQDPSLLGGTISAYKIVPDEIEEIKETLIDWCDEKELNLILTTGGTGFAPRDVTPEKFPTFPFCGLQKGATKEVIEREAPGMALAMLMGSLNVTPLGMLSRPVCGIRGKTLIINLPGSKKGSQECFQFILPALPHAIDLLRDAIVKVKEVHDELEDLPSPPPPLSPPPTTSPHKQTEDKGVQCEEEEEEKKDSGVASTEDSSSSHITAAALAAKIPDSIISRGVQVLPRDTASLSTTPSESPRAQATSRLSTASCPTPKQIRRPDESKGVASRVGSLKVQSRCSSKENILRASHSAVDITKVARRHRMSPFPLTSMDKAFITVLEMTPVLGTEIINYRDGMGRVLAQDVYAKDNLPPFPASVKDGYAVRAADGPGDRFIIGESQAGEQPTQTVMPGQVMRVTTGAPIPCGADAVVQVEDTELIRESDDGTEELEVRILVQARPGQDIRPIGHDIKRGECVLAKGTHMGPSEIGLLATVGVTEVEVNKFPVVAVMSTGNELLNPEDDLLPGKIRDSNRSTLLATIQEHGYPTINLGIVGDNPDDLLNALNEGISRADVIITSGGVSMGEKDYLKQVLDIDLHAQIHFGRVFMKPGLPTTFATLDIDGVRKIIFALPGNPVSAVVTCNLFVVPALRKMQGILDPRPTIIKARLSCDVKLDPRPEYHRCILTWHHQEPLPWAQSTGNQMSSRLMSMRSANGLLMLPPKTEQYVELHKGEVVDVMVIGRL

B1: SyliteM (peptide)
chain: FSIVGSYPRRRRRRRRR
modifications: also: fluorophore
B2: Sylite (peptide)
chain 1: YSIVGSYPRKC(maleimide‑Cy5)
chain 2: YSIVGSYPR
modifications: also: two chains joined via linker, linkage not given here
B3: gephyrin E domain (domain or fragment)
chain: SSKENILRASHSAVDITKVARRHRMSPFPLTSMDKAFITVLEMTPVLGTEIINYRDGMGRVLAQDVYAKDNLPPFPASVKDGYAVRAADGPGDRFIIGESQAGEQPTQTVMPGQVMRVTTGAPIPCGADAVVQVEDTELIRESDDGTEELEVRILVQARPGQDIRPIGHDIKRGECVLAKGTHMGPSEIGLLATVGVTEVEVNKFPVVAVMSTGNELLNPEDDLLPGKIRDSNRSTLLATIQEHGYPTINLGIVGDNPDDLLNALNEGISRADVIITSGGVSMGEKDYLKQVLDIDLHAQIHFGRVFMKPGLPTTFATLDIDGVRKIIFALPGNPVSAVVTCNLFVVPALRKMQGILDPRPTIIKARLSCDVKLDPRPEYHRCILTWHHQEPLPWAQSTGNQMSSRLMSMRSANGLLMLPPKTEQYVELHKGEVVDVMVIGRL

Key:
[1] = molecular target: T1, eGFP-gephyrin; assay: immunostaining of cells or tissue; fixed COS-7 cells expressing eGFP-gephyrin or eGFP alone, stained with the fluorescent probes (50 nM Sylite); probe signal at eGFP-rich regions; details: one partner purified
[2] = molecular target: B2; assay: ITC; Sylite or SyliteM titrated with purified gephyrin E domain; N=3; details: both partners purified
[3] = molecular target: B1; assay: as above; details: both partners purified

| Binder | signal-to-background ratio (SBR) [1] | Kd [2] | stoichiometry N [2] | Kd [3] |
| --- | --- | --- | --- | --- |
| B1 | 36 | – | – | – |
| B2 | 492 | – | – | – |
| B3 | – | 17.5 nM | 2 gephyrin E domain per probe | 205 nM |
